# Measurements taken from patent publication US20110300138A1 (published 2011).
# Key:
# [1] = target: TSH receptor (full length human TSHR) coated on tubes (human) (UniProt P16473); test: 125I-TSH bound to TSHR coated tubes, in assay buffer
# [2] = target: TSH receptor (full length human TSHR) coated on tubes (human) (UniProt P16473); test: 125I-TSH bound to TSHR coated tubes, in HBD pool serum
# [3] = target: TSHR260-alkaline phosphatase (TSHR260-AP) (human) (UniProt P05187); test: TSHR260-AP bridge ELISA, full length TSHR on wells; 10 µg/mL, diluted in HBD
# [4] = target: TSH receptor (TSHR), full length human, coated on tubes (human) (UniProt P16473); test: inhibition of 125I-TSH binding to TSHR coated tubes; 0.003 µg/mL, diluted in HBD serum pool
# [5] = target: TSHR260-alkaline phosphatase (TSHR260-AP) (human) (UniProt P05187); test: TSHR260-AP bridge ELISA, full length TSHR on wells; 0.1 µg/mL, diluted in HBD
# [6] = target: TSHR260-alkaline phosphatase (TSHR260-AP) (human) (UniProt P05187); test: TSHR260-AP bridge ELISA, full length TSHR on wells; 250 µg/mL, diluted in HBD
# [7] = target: human TSH receptor (full length), coated on tubes (human) (UniProt P16473); test: inhibition of 125I-K1-70 Fab (competitor) binding to TSHR coated tubes; 0.03 µg/mL in HBD serum pool
# [8] = target: TSHR260-alkaline phosphatase (TSHR260-AP) (human) (UniProt P05187); test: TSHR260-AP bridge ELISA, full length TSHR on wells; 10 µg/mL, diluted in assay buffer
# [9] = target: TSHR260-alkaline phosphatase (TSHR260-AP) (human) (UniProt P05187); test: TSHR260-AP bridge ELISA, full length TSHR on wells; 0.005 µg/mL, diluted in HBD
# [10] = target: human TSH receptor (full length), coated on tubes (human) (UniProt P16473); test: inhibition of 125I-K1-70 Fab (competitor) binding to TSHR coated tubes; 0.003 µg/mL in HBD serum pool
# [11] = target: human thyroid stimulating hormone receptor (TSHR), full length (human) (UniProt P16473); test: 125I-K1-18 Fab competition, TSHR coated tubes; 0.001 µg/mL in assay buffer
# [12] = target: TSHR260-alkaline phosphatase (TSHR260-AP) (human) (UniProt P05187); test: TSHR260-AP bridge ELISA, full length TSHR on wells; 0.1 µg/mL, diluted in assay buffer
# [13] = target: human thyroid stimulating hormone receptor (TSHR), full length (human) (UniProt P16473); test: 125I-K1-18 Fab competition, TSHR coated tubes; 0.01 µg/mL in HBD
# [14] = target: TSH receptor (TSHR), full length human, coated on tubes (human) (UniProt P16473); test: inhibition of 125I-TSH binding to TSHR coated tubes; 0.001 µg/mL, diluted in HBD serum pool
# [15] = target: TSHR260-alkaline phosphatase (TSHR260-AP) (human) (UniProt P05187); test: TSHR260-AP bridge ELISA, full length TSHR on wells; 0.005 µg/mL, diluted in assay buffer
# [16] = target: TSH receptor (TSHR) coated on tubes (human) (UniProt P16473); test: inhibition of 125I-K1-70 IgG binding to TSHR coated tubes; sample 0.01 µg/mL in HBD serum pool
# [17] = target: TSHR260-AP (fusion protein consisting of a fragment of human TSHR, amino acids 22-260, with alkaline phosphatase) (human); test: bridging ELISA: full length TSHR on wells, TSHR260-AP in liquid phase; IgG 0.1 µg/mL in HBD serum
# [18] = target: TSHR260-AP (fusion protein consisting of a fragment of human TSHR, amino acids 22-260, with alkaline phosphatase) (human); test: bridging ELISA: full length TSHR on wells, TSHR260-AP in liquid phase; IgG 0.5 µg/mL in HBD serum
# [19] = target: TSHR260-AP (fusion protein consisting of a fragment of human TSHR, amino acids 22-260, with alkaline phosphatase) (human); test: bridging ELISA: full length TSHR on wells, TSHR260-AP in liquid phase; IgG 0.005 µg/mL in HBD serum
# [20] = target: TSHR260-AP (fusion protein consisting of a fragment of human TSHR, amino acids 22-260, with alkaline phosphatase) (human); test: bridging ELISA: full length TSHR on wells, TSHR260-AP in liquid phase; IgG 0.01 µg/mL in HBD serum
# [21] = target: TSHR260-AP (fusion protein consisting of a fragment of human TSHR, amino acids 22-260, with alkaline phosphatase) (human); test: bridging ELISA: full length TSHR on wells, TSHR260-AP in liquid phase; IgG 0.5 µg/mL in HBD serum; remark: listed apart in the source
# [22] = target: TSHR260-AP (fusion protein consisting of a fragment of human TSHR, amino acids 22-260, with alkaline phosphatase) (human); test: bridging ELISA: full length TSHR on wells, TSHR260-AP in liquid phase; IgG 10 µg/mL in HBD serum
# [23] = target: TSHR260-AP (fusion protein consisting of a fragment of human TSHR, amino acids 22-260, with alkaline phosphatase) (human); test: bridging ELISA: full length TSHR on wells, TSHR260-AP in liquid phase; IgG 0.005 µg/mL in HBD serum; remark: listed apart in the source
# [24] = target: TSHR260-AP (fusion protein consisting of a fragment of human TSHR, amino acids 22-260, with alkaline phosphatase) (human); test: bridging ELISA: full length TSHR on wells, TSHR260-AP in liquid phase; IgG 0.1 µg/mL in HBD serum; remark: listed apart in the source
# [25] = target: TSHR260-AP (fusion protein consisting of a fragment of human TSHR, amino acids 22-260, with alkaline phosphatase) (human); test: bridging ELISA: full length TSHR on wells, TSHR260-AP in liquid phase; IgG 0.05 µg/mL in HBD serum
# [26] = target: TSHR260-AP (fusion protein consisting of a fragment of human TSHR, amino acids 22-260, with alkaline phosphatase) (human); test: bridging ELISA: full length TSHR on wells, TSHR260-AP in liquid phase; IgG 1 µg/mL in HBD serum
# [27] = target: TSHR260-AP (fusion protein consisting of a fragment of human TSHR, amino acids 22-260, with alkaline phosphatase) (human); test: bridging ELISA: full length TSHR on wells, TSHR260-AP in liquid phase; IgG 0.05 µg/mL in HBD serum; remark: listed apart in the source
# [28] = target: TSHR260-AP (fusion protein consisting of a fragment of human TSHR, amino acids 22-260, with alkaline phosphatase) (human); test: bridging ELISA: full length TSHR on wells, TSHR260-AP in liquid phase; IgG 0.01 µg/mL in HBD serum; remark: listed apart in the source
# [29] = target: TSHR260-AP (fusion protein consisting of a fragment of human TSHR, amino acids 22-260, with alkaline phosphatase) (human); test: bridging ELISA: full length TSHR on wells, TSHR260-AP in liquid phase; IgG 1 µg/mL in HBD serum; remark: listed apart in the source
# [30] = target: TSHR260-AP (fusion protein consisting of a fragment of human TSHR, amino acids 22-260, with alkaline phosphatase) (human); test: bridging ELISA: full length TSHR on wells, TSHR260-AP in liquid phase; IgG 10 µg/mL in HBD serum; remark: listed apart in the source
# [31] = target: TSH receptor (TSHR), full length human, coated on tubes (human) (UniProt P16473); test: binding of 125I-TSH to TSHR coated tubes, in assay buffer, no competitor
# [32] = target: TSH receptor (TSHR), full length human, coated on tubes (human) (UniProt P16473); test: binding of 125I-TSH to TSHR coated tubes, in HBD serum pool, no competitor
# [33] = target: TSH receptor (full length human TSHR) coated on tubes (human) (UniProt P16473); test: 125I-TSH binding to TSHR coated tubes, in HBD serum pool, no inhibitor
# [34] = target: TSH receptor (TSHR), full length human, coated on tubes (human) (UniProt P16473); test: binding of 125I-TSH to TSHR coated tubes, in assay buffer, no competitor; remark: listed apart in the source
# [35] = target: TSH receptor (full length human TSHR) coated on tubes (human) (UniProt P16473); test: 125I-TSH binding to TSHR coated tubes, in assay buffer, no inhibitor
# [36] = target: TSHR coated tubes (full length TSHR) (human) (UniProt P16473); test: 125I-TSH binding to TSHR coated tubes in assay buffer only (no competitor)
substance,measurement,setting,value
125I-TSH (ligand),125I-TSH binding (%),[1],17.7%
same,125I-TSH binding (%),[2],16%
M22 Fab,Mean absorbance at 405 nm (absorbance at 405 nm),[3],0.01
same,Inhibition of binding (%),[4],-7.9%
same,Mean absorbance at 405 nm (absorbance at 405 nm),[5],-0.007
same,Mean absorbance at 405 nm (absorbance at 405 nm),[6],0.031
same,Inhibition of binding (%),[7],66.8%
same,Mean absorbance at 405 nm (absorbance at 405 nm),[8],0.034
same,Mean absorbance at 405 nm (absorbance at 405 nm),[9],-0.013
same,Inhibition of binding (%),[10],11.5%
same,Inhibition of binding (%),[11],-0.7%
same,Mean absorbance at 405 nm (absorbance at 405 nm),[12],0.015
same,Inhibition of binding (%),[13],20.4%
same,Inhibition of binding (%),[14],-11.2%
same,Mean absorbance at 405 nm (absorbance at 405 nm),[15],-0.004
same,Inhibition of binding (%),[16],34%
"M22 IgG (human monoclonal thyroid stimulating autoantibody, hMAb TSHR1)",Mean absorbance at 405 nm (absorbance at 405 nm),[17],0.548
same,Mean absorbance at 405 nm (absorbance at 405 nm),[18],1.02
same,Mean absorbance at 405 nm (absorbance at 405 nm),[19],0.011
same,Mean absorbance at 405 nm (absorbance at 405 nm),[20],0.043
same,Mean absorbance at 405 nm (absorbance at 405 nm),[21],1.09
same,Mean absorbance at 405 nm (absorbance at 405 nm),[22],1.27
same,Mean absorbance at 405 nm (absorbance at 405 nm),[23],0.032
same,Mean absorbance at 405 nm (absorbance at 405 nm),[24],0.599
same,Mean absorbance at 405 nm (absorbance at 405 nm),[25],0.332
same,Mean absorbance at 405 nm (absorbance at 405 nm),[26],1.17
same,Mean absorbance at 405 nm (absorbance at 405 nm),[27],0.292
same,Mean absorbance at 405 nm (absorbance at 405 nm),[28],0.064
same,Mean absorbance at 405 nm (absorbance at 405 nm),[29],1.09
same,Mean absorbance at 405 nm (absorbance at 405 nm),[30],1.36
^125I-TSH (ligand),^125I-TSH binding (%),[31],11%
same,^125I-TSH binding (%),[32],11.5%
same,% binding,[33],12.4%
same,^125I-TSH binding (%),[34],13.4%
same,% binding,[35],10.8%
same,% of ^125I-TSH binding,[36],12.4%
